The values below come from patent EP4772193A1 (Teijin Pharma Limited, dated 2026).

Read-outs that look alike come from different tables or passages of the source.

The target of experiment [1] is T1, recombinant human soluble gpNMB (recombinant human gpNMB-FLAG-His) (human, UniProt Q14956 23-498).
T1 sequence: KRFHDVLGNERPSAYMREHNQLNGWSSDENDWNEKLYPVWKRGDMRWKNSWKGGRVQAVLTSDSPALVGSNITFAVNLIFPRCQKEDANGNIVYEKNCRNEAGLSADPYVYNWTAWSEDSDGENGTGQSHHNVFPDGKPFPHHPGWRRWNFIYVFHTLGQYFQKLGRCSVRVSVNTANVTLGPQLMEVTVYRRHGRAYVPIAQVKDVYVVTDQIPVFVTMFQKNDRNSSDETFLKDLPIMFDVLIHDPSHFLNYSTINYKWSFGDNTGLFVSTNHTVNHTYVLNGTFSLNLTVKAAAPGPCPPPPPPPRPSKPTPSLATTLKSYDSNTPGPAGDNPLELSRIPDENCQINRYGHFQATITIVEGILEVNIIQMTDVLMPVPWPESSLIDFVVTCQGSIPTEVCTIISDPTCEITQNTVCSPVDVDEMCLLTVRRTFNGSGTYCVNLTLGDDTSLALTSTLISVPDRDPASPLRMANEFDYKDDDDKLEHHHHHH
Nature of the experiment: antigen ELISA, vs hGPN18-2_H2L3.

For experiment [2], the target named is T1, recombinant human soluble gpNMB …. The experiment can be described thus: antigen ELISA. For orientation: An ELISA detects its analyte on a solid surface through an enzyme-linked reagent.
For experiment [3] the target is unchanged. The experiment can be described thus: antigen ELISA. The source holds these as a separate data set.
Experiment [4] shares this target. The experiment can be described thus: antigen ELISA, vs hGPN18-2_H2L3. The source holds these as a separate data set.

B1: hGPN18-2_H2L3 VH D111A (antibody, V domains shown)
VH: QVQLVQSGPGLVQPTQTLTLTCSFSGFSLSTSVMGVGWIRQPSGKGLEWLADIWWDDDKDYNPSLKSRLTISKDTSKNQVVLTMTNMDTVDTATYYCARTYYSNYEYYGMAYWGQGTLVTVSS
VL: DIVMTQSPDSLAVSLGERATINCRSSQTIILSNGNTYLEWYQQKPGQPPKLLIYKVSNRFSGVPDRFSGSGSGTDFTLTISSLQAEDVAVYYCFQGSHVPFTFGSGTKLEIKR
For B1, the Relative binding activity in experiment [1] worked out at 0.62. Also, the EC50 (commonly the concentration at which the effect is half-maximal) in experiment [2] is 11.3 nM.

B2: hGPN18-2_H2L3 VH S30A (antibody, V domains shown)
VH: QVQLVQSGPGLVQPTQTLTLTCSFSGFSLATSVMGVGWIRQPSGKGLEWLADIWWDDDKDYNPSLKSRLTISKDTSKNQVVLTMTNMDTVDTATYYCARTYYSNYEYYGMDYWGQGTLVTVSS
VL: DIVMTQSPDSLAVSLGERATINCRSSQTIILSNGNTYLEWYQQKPGQPPKLLIYKVSNRFSGVPDRFSGSGSGTDFTLTISSLQAEDVAVYYCFQGSHVPFTFGSGTKLEIKR
Turning to B2, in experiment [3], the EC50 is 6.6 nM. For the same molecule, the Relative binding activity in experiment [4] was found to be 0.97.

B3: hGPN18-2_H2L3 VH W54A (antibody, V domains shown)
VH: QVQLVQSGPGLVQPTQTLTLTCSFSGFSLSTSVMGVGWIRQPSGKGLEWLADIAWDDDKDYNPSLKSRLTISKDTSKNQVVLTMTNMDTVDTATYYCARTYYSNYEYYGMDYWGQGTLVTVSS
VL: DIVMTQSPDSLAVSLGERATINCRSSQTIILSNGNTYLEWYQQKPGQPPKLLIYKVSNRFSGVPDRFSGSGSGTDFTLTISSLQAEDVAVYYCFQGSHVPFTFGSGTKLEIKR
As to B3, the EC50 in experiment [3] worked out at 38 nM. Besides, the Relative binding activity in experiment [4] worked out at 0.2.

B4: hGPN18-2_H2L3 VH K59A (antibody, V domains shown)
VH: QVQLVQSGPGLVQPTQTLTLTCSFSGFSLSTSVMGVGWIRQPSGKGLEWLADIWWDDDADYNPSLKSRLTISKDTSKNQVVLTMTNMDTVDTATYYCARTYYSNYEYYGMDYWGQGTLVTVSS
VL: DIVMTQSPDSLAVSLGERATINCRSSQTIILSNGNTYLEWYQQKPGQPPKLLIYKVSNRFSGVPDRFSGSGSGTDFTLTISSLQAEDVAVYYCFQGSHVPFTFGSGTKLEIKR
In the case of B4, the EC50 in experiment [3] turned out to be 4.42 nM. Besides, in experiment [4], the Relative binding activity was 0.78.

B5: hGPN18-2_H2L3 VH S32A (antibody, V domains shown)
VH: QVQLVQSGPGLVQPTQTLTLTCSFSGFSLSTAVMGVGWIRQPSGKGLEWLADIWWDDDKDYNPSLKSRLTISKDTSKNQVVLTMTNMDTVDTATYYCARTYYSNYEYYGMDYWGQGTLVTVSS
VL: DIVMTQSPDSLAVSLGERATINCRSSQTIILSNGNTYLEWYQQKPGQPPKLLIYKVSNRFSGVPDRFSGSGSGTDFTLTISSLQAEDVAVYYCFQGSHVPFTFGSGTKLEIKR
In the case of B5, the EC50 in experiment [3] is 4.31 nM. In addition, the Relative binding activity in experiment [4] came out at 0.78.

B6: hGPN18-2_H2L3 VH W55A (antibody, V domains shown)
VH: QVQLVQSGPGLVQPTQTLTLTCSFSGFSLSTSVMGVGWIRQPSGKGLEWLADIWADDDKDYNPSLKSRLTISKDTSKNQVVLTMTNMDTVDTATYYCARTYYSNYEYYGMDYWGQGTLVTVSS
VL: DIVMTQSPDSLAVSLGERATINCRSSQTIILSNGNTYLEWYQQKPGQPPKLLIYKVSNRFSGVPDRFSGSGSGTDFTLTISSLQAEDVAVYYCFQGSHVPFTFGSGTKLEIKR
For the molecule B6, the EC50 in experiment [3] came out at 8.36 nM. For the same molecule, the Relative binding activity in experiment [4] came out at 0.66.

B7: hGPN18-2_H2L3 VH M34A (antibody, V domains shown)
VH: QVQLVQSGPGLVQPTQTLTLTCSFSGFSLSTSVAGVGWIRQPSGKGLEWLADIWWDDDKDYNPSLKSRLTISKDTSKNQVVLTMTNMDTVDTATYYCARTYYSNYEYYGMDYWGQGTLVTVSS
VL: DIVMTQSPDSLAVSLGERATINCRSSQTIILSNGNTYLEWYQQKPGQPPKLLIYKVSNRFSGVPDRFSGSGSGTDFTLTISSLQAEDVAVYYCFQGSHVPFTFGSGTKLEIKR
For B7, the EC50 in experiment [3] stood at 3.58 nM. Moreover, the Relative binding activity in experiment [4] came to 0.91.

B8: hGPN18-2_H2L3 VH T31A (antibody, V domains shown)
VH: QVQLVQSGPGLVQPTQTLTLTCSFSGFSLSASVMGVGWIRQPSGKGLEWLADIWWDDDKDYNPSLKSRLTISKDTSKNQVVLTMTNMDTVDTATYYCARTYYSNYEYYGMDYWGQGTLVTVSS
VL: DIVMTQSPDSLAVSLGERATINCRSSQTIILSNGNTYLEWYQQKPGQPPKLLIYKVSNRFSGVPDRFSGSGSGTDFTLTISSLQAEDVAVYYCFQGSHVPFTFGSGTKLEIKR
For the molecule B8, the EC50 in experiment [3] came to 3.12 nM. For the same molecule, in experiment [4], the Relative binding activity was 0.97.

B9: hGPN18-2_H2L3 VH V33A (antibody, V domains shown)
VH: QVQLVQSGPGLVQPTQTLTLTCSFSGFSLSTSAMGVGWIRQPSGKGLEWLADIWWDDDKDYNPSLKSRLTISKDTSKNQVVLTMTNMDTVDTATYYCARTYYSNYEYYGMDYWGQGTLVTVSS
VL: DIVMTQSPDSLAVSLGERATINCRSSQTIILSNGNTYLEWYQQKPGQPPKLLIYKVSNRFSGVPDRFSGSGSGTDFTLTISSLQAEDVAVYYCFQGSHVPFTFGSGTKLEIKR
Take B9: in experiment [3], the EC50 amounted to 8.88 nM. Besides, the Relative binding activity in experiment [4] stood at 0.55.

B10: hGPN18-2_H2L3 VH L29A (antibody, V domains shown)
VH: QVQLVQSGPGLVQPTQTLTLTCSFSGFSASTSVMGVGWIRQPSGKGLEWLADIWWDDDKDYNPSLKSRLTISKDTSKNQVVLTMTNMDTVDTATYYCARTYYSNYEYYGMDYWGQGTLVTVSS
VL: DIVMTQSPDSLAVSLGERATINCRSSQTIILSNGNTYLEWYQQKPGQPPKLLIYKVSNRFSGVPDRFSGSGSGTDFTLTISSLQAEDVAVYYCFQGSHVPFTFGSGTKLEIKR
With B10, the EC50 in experiment [3] came out at 4.41 nM. Also, the Relative binding activity in experiment [4] was found to be 0.82.

B11: hGPN18-2_H2L3 VH E106A (antibody, V domains shown)
VH: QVQLVQSGPGLVQPTQTLTLTCSFSGFSLSTSVMGVGWIRQPSGKGLEWLADIWWDDDKDYNPSLKSRLTISKDTSKNQVVLTMTNMDTVDTATYYCARTYYSNYAYYGMDYWGQGTLVTVSS
VL: DIVMTQSPDSLAVSLGERATINCRSSQTIILSNGNTYLEWYQQKPGQPPKLLIYKVSNRFSGVPDRFSGSGSGTDFTLTISSLQAEDVAVYYCFQGSHVPFTFGSGTKLEIKR
B11: the Relative binding activity in experiment [1] turned out to be 0.64. Also, in experiment [2], the EC50 amounted to 10.8 nM.

B12: hGPN18-2_H2L3 VH S28A (antibody, V domains shown)
VH: QVQLVQSGPGLVQPTQTLTLTCSFSGFALSTSVMGVGWIRQPSGKGLEWLADIWWDDDKDYNPSLKSRLTISKDTSKNQVVLTMTNMDTVDTATYYCARTYYSNYEYYGMDYWGQGTLVTVSS
VL: DIVMTQSPDSLAVSLGERATINCRSSQTIILSNGNTYLEWYQQKPGQPPKLLIYKVSNRFSGVPDRFSGSGSGTDFTLTISSLQAEDVAVYYCFQGSHVPFTFGSGTKLEIKR
Turning to B12, the EC50 in experiment [3] came to 3.22 nM. For the same molecule, in experiment [4], the Relative binding activity was 0.88.

B13: hGPN18-2_H2L3 VH V36A (antibody, V domains shown)
VH: QVQLVQSGPGLVQPTQTLTLTCSFSGFSLSTSVMGAGWIRQPSGKGLEWLADIWWDDDKDYNPSLKSRLTISKDTSKNQVVLTMTNMDTVDTATYYCARTYYSNYEYYGMDYWGQGTLVTVSS
VL: DIVMTQSPDSLAVSLGERATINCRSSQTIILSNGNTYLEWYQQKPGQPPKLLIYKVSNRFSGVPDRFSGSGSGTDFTLTISSLQAEDVAVYYCFQGSHVPFTFGSGTKLEIKR
Consider B13, for which, in experiment [3], the EC50 turned out to be 3.43 nM. Further, the Relative binding activity in experiment [4] was found to be 0.92.

B14: hGPN18-2_H2L3 VH G109A (antibody, V domains shown)
VH: QVQLVQSGPGLVQPTQTLTLTCSFSGFSLSTSVMGVGWIRQPSGKGLEWLADIWWDDDKDYNPSLKSRLTISKDTSKNQVVLTMTNMDTVDTATYYCARTYYSNYEYYAMDYWGQGTLVTVSS
VL: DIVMTQSPDSLAVSLGERATINCRSSQTIILSNGNTYLEWYQQKPGQPPKLLIYKVSNRFSGVPDRFSGSGSGTDFTLTISSLQAEDVAVYYCFQGSHVPFTFGSGTKLEIKR
Consider B14, for which the Relative binding activity in experiment [1] was 0.61. In addition, in experiment [2], the EC50 turned out to be 10.5 nM.
